In general, EC50 refers to the concentration that produces a half-maximal response. By Kd is commonly meant the free concentration of one partner at which half of the binding sites on the other are occupied at equilibrium, for simple one-to-one binding. Low values mean tighter binding, high ones weaker binding. For orientation: koff means a measure of how fast the partners let go of each other. Higher therefore signals fast dissociation. As usually defined, the kon is a measure of how fast the partners come together.

For assay [1], the target named is T1, full-length human Siglec15 with C-terminal flag and Myc tags on HEK293 cells (human, UniProt Q6ZMC9 20-328).
T1 construct: whole, on cells; also called Siglec15/HEK293; HEK293-Siglec 15; not shown: C-terminal flag and Myc tags from pCMV6-Entry vector
T1 sequence (looked up): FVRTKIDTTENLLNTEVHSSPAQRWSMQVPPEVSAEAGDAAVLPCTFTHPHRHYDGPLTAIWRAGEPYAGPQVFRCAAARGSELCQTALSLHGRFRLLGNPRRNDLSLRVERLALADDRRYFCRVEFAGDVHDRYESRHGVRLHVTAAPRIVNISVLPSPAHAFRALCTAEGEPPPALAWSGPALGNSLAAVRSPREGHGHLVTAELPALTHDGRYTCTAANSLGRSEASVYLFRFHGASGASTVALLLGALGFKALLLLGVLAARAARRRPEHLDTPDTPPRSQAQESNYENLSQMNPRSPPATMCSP
The assay is described as follows: FACS on Siglec15/HEK293 cells, scFv, anti-His detection. How it is done: […] Cells were spun down at 1200 rpm for 5 minutes at 4° C. to remove primary antibodies. Cells were then washed once with 200 uL of full medium per well. Samples were detected with premixed anti-His Biotin Streptavidin Alexa fluor 647 by adding 100 uL of diluted secondary antibody and incubated at 4° C. for 30 minutes in the dark. Samples were spun down at 1200 rpm for 5 minutes at 4° C. and washed twice with 200 uL of 1×PBS per well. Samples were then reconstituted in 200 uL of 1×PBS and read on Attune NxT cytometer. Analysis was performed using Attune NxT software plotting the overlaying the histogram of anti-Siglec15 scFvs binding onto both negative and target cell lines.

The target in assay [2] is T2, human Siglec15-Fc fusion protein (human, UniProt Q6ZMC9 20-263).
T2 construct: Bought protein (Acro #SG5-H5253 is named for the selection); also called recombinant Siglec 15-Fc fusion protein (Acro #SG5-H5253); human Siglec15-Fc protein; not shown: Fc part of the bought fusion protein
T2 sequence (looked up): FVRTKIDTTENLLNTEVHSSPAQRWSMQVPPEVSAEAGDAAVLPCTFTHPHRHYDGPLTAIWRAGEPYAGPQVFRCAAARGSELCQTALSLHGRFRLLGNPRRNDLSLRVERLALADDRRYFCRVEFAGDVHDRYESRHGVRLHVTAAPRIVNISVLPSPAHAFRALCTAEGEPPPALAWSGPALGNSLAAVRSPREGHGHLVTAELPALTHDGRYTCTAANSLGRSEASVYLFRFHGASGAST
The assay is described as follows: ELISA; Siglec15-Fc captured by anti-hFc, scFv titrated, anti-Flag HRP. How it is done:
An ELISA assay was developed to determine the EC50 of anti-Siglec15 antibodies. Briefly, a 384 well plate was immobilized with anti-human Fc antibody at final concentration of 2 ug/mL in 1×PBS in total volume of 25 uL per well. The plate was incubated overnight at 4° C. followed by blocking with 80 uL of superblock per well for 1 hour. Human Siglec 15-Fc was captured through immobilized anti-hFc antibody. Purified anti-Siglec 15 scFvs were 2-fold serial titrated from 200 nM. 25 uL was added to human Siglec15 immobilized wells and incubated for 1 hour with shaking. The Siglec15 binding was detected by adding 25 uL of anti-Flag HRP diluted at 1:5000 in 1×PBST. In between each step, the plate was washed 3 times with 1×PBST in a plate washer. The plate was then developed with 20 uL of TMB substrate for 5 mins and stopped by adding 20 uL of 2 N sulfuric acid. The plate was read at OD450 nm Biotek plate reader and then plotted in Prism 8.1 software.
A general note: In an ELISA, binding on a coated surface is turned into a signal by an enzyme label.

The target in assay [3] is T2, human Siglec15-Fc fusion protein. The assay is described as follows: SPR Biacore T200; Siglec15-Fc captured on Protein A chip, scFv as analyte. The protocol: Kinetic analysis of anti-Siglec15 scFvs were assessed by SPR technology with Biacore T200. The assay was run with Biacore T200 control software version 2.0. Protein A sensor chip was used to capture Fc fusion protein in the assay. For each cycle, 1 ug/mL of human Siglec15-Fc protein was captured for 60 seconds at flow rate of 10 ul/min on flow cell 2 in 1× HBSP buffer on Protein A sensor chip. 2-fold serial diluted HIS tag purified anti-Siglec15 scFv was injected onto both reference flow cell 1 and Siglec 15-Fc captured flow cell 2 for 150 seconds at flow rate of 30 ul/min followed by wash for 300 seconds. The flow cells were then regenerated with Glycine pH 2 buffer (GE) for 30 seconds at flow rate of 30 ul/mins. 8 concentration points from 300-0 nM was assayed per anti-Siglec15 scFv in a 96 well plate. The kinetics of scFvs binding to Siglec 15 protein was analyzed with Biacore T200 evaluation software version 3.0. The specific binding response unit was derived from subtraction of binding to reference flow cell 1 from Siglec15 captured flow cell 2.

B1: 2019EP47-A10 scFv (scFv, V domains shown)
VH: QMQLVQSGGGVVQPGRSLRLSCAASGFTFSSYGMHWVRQAPGKGLEWVAVISYDGSNKYYADSVKDRFTISRDNSKNTLYLQMNSLRAEDTAVYYCAKDIVGDSGSYPIYYYYGMDVWGQGTTVTVSS
VL: SQSALTQPHSVSESPGKTVTISCTRSSGSIASNYVQWYQQRPGSAPSTVIYEDNQRPSGVPDRFSGSVDISSNSASLTISGLQTEDEADYYCQSYDNDNMVFGGGTKLTVL
notes: Tested as a single-chain scFv made in E. coli with a C-terminal flag and 6x His tag
For the molecule B1, the EC50 in assay [1] was 112 nM. In assay [2], this molecule came in with an EC50 of 2.5 nM. In assay [3], this molecule came in with a dissociation constant (Kd) of 3.32 nM, a koff of 6.02e-05 s⁻¹ and a kon of 18200 M⁻¹ s⁻¹.

B2: 2020EP032-A12 scFv (scFv, V domains shown)
VH: QMQLVQSGGGVVQPGRSLRLSCAASGFTFSSYGMHWVRQAPGKGLEWVAVISDDGSNKYYADSVKGRFTISRDNSKNTLYLQMNSLRAEDTAVYYCAKKDVATILFDNWGQGTLVTVSS
VL: VIWMTQSPSTLSASVGDRVTITCRASQSITRWLAWYQQKPGKAPKLLIYKTSDLDGGVPSRFSGSESGAEFTLTISSLQPDDVATYFCQHYNTRSWTFGQGTKVELK
notes: as for B1
As for B2, the EC50 in assay [1] came to 0.86 nM. In assay [2], this molecule displayed an EC50 of 0.544 nM. Moreover, in assay [3], the affinity, expressed as Kd, was 2.26 nM; the koff stood at 0.000294 s⁻¹; the kon is 130000 M⁻¹ s⁻¹.

B3: 2020EP032-C09 scFv (scFv, V domains shown)
VH: QVQLVESGGGLVKPGGSLRLSCAASGFSFNNAWMSWVRQAPGKGLEWVGRIKSKTDDATTEYAAPVEGRFTISRDDSKNMLYLQMDSLKTEDTAVYYCTTDLRWEELPMYWGQGTLVTVSS
VL: VIWMTQSPSSLSASVGDRVTITCRASQGIRNDLGWYQQKPGKAPKVLIYAASSLQSGVPSRFSGSGSGTDFTLTISSLQPEDFATYYCLQDYNYPQTFGQGTKVGIKR
notes: as for B1
In the case of B3, the midpoint of the response in assay [1], the EC50, lay at 0.65 nM. For the same molecule, the EC50 in assay [2] is 6.07 nM. In addition, in assay [3], the Kd was 25.1 nM, the koff came to 0.00169 s⁻¹ and the kon is 67600 M⁻¹ s⁻¹.

B4: 2020EP032-A08 scFv (scFv, V domains shown)
VH: QVQLQQWGAGLLKPSETLSLTCAVYGGSFSGYYWSWIRQPPGKGLEWIGEINHSGSTNYNPSLKSRVTISVDTSKNQFSLKLSSVTAADTAVYYCARGVYYYDSSGPRDYFDYWGQGTLVTVSS
VL: DIVMTQSPSSLSASVGDRVTITCQASQDISNYLNWYQQKPGKAPKLLIYDASNLKTGVPSRFSGSGSGTDFTFTITSLQPEDIGTYFCQQYGNLPYTFGQGTKLEIK
notes: as for B1
B4: the EC50 in assay [1] was determined as 1.6 nM. In assay [2], the midpoint of the response, the EC50, lay at 5.87 nM. In assay [3], this molecule yielded a Kd of 18.1 nM, a koff of 0.000842 s⁻¹ and a kon of 46400 M⁻¹ s⁻¹.

B5: 2019EP47-A02 scFv (scFv, V domains shown)
VH: EVQLVQSGGGVVQPGRSLRLSCAASGFTFSSYAMHWVRQAPGKGLEWVAVISYDGSNKYYADSVKGRFTISRDNSKNTLYLQMNSLRAEDTAVYYCARSRYSSSLRRYYGMDVWGQGTTVTVSS
VL: AIQLTQSPSSLSASVGDRVTITCQATHDIANYLNWYQQKPGKAPKLLIYAASNLETGVPSRFSGSGSGTDFTFAISSLQPEDIAVYYCQQYDNLPLTFGGGTKVEIK
notes: as for B1
Molecule B5 registered an EC50 in assay [1] of 10.6 nM. Besides, in assay [2], a half-maximal effect (EC50) was put at 21.9 nM. In assay [3], this molecule yielded a Kd of 58.8 nM, a koff of 0.00149 s⁻¹ and a kon of 28700 M⁻¹ s⁻¹.

B6: 2020EP083-G11 scFv (scFv, V domains shown)
VH: EVQLVESGGGLVEPGGSLRLSCAASGFTFSSYSMSWVRQAPGKGLEWVGRIKSETDGGTTDYAGPAKGKFIISRNDAENTVSLQMNSLKFEDTAVYHCTTDSSSSWFSYSFDNWGQETLVTVSS
VL: EIVMTQSPATLSVSPGERATLSCRASQNVNSNLAWYQQKTGQAPRLLIFGASTRATGIPARFSGSGSGTEFTLTIGSLQSEDFAVYYCQQYNNWPPTFGGWTKVEIK
notes: as for B1
B6 gave an EC50 in assay [1] of 0.87 nM. This molecule registered an EC50 in assay [2] of 1.29 nM. In assay [3], this molecule returned a Kd of 1.12 nM, a koff of 0.000356 s⁻¹ and a kon of 318000 M⁻¹ s⁻¹.

B7: 2019EP47-C12 scFv (scFv, V domains shown)
VH: EVQLVESGGGLEKPGRSLRLSCTASGFTFGDYAMSWFRQAPGKGLEWVGFITTKPYGGTTEYAASVKGRFTISRDDSKSIAYLQMNSLKTEDTAEYYCTKDSEAYYGSGSYMVGYWGQGTLVTVSS
VL: QSVLTQPPSVSLAPGKTATITCGGDNIENKDVHWYQQKPGQAPVLVIRFAADRPSGIPERFSGSSSGNTATLTISRVEAGDEADYYCQVWQSTRDHPVVVFGGGTKLTVL
notes: as for B1
For B7, the EC50 is 13.1 nM in assay [1] and 9.97 nM in assay [2].

B8: 2020EP032-B03 scFv (scFv, V domains shown)
VH: QVQLQQWGAGLLKPSETLSLTCAVYGGSFSGYYWSWIRQPPGKGLEWIGEINHSGSTNYNPSLKSRVTISVDTSKNQFSLKLSSVTAADTAVYYCARGPLRKYYDFWSGSRNYYYYGMDVWGQGTTVTVSS
VL: QPVLTQDPAVSVALGQTVRITCQGDSLRSNYASWYQLKPGQAPVLVIYDKNNRPSGIPDRFSGSNSGNTASLTIAGAQAEDEADYYCTSRDSSGTVFGGGTKLTVL
notes: as for B1
The molecule B8 came in with an EC50 in assay [1] of 1.22 nM. Moreover, it took 1.78 nM to reach a half-maximal effect in assay [2] (EC50). In addition, in assay [3], the equilibrium dissociation constant (Kd) is 2.11 nM, the koff is 0.000282 s⁻¹ and the kon turned out to be 134000 M⁻¹ s⁻¹.

B9: 2020EP083-H01 scFv (scFv, V domains shown)
VH: QLQLQESGPGLVKPAETLSLTCTVSGGSVSSGDNLWDWIRQPPGKGLEWIGSIRDSGNPAYNPSLRSRVTISADTSTDQFSLKLTSVTAADTAVYYCARHSDGGYGKIYGMDVWGQGTTVTVSS
VL: DIQLTQSPSFLSASVGDRVTITCRASQAVSTYLVWYLQKPGQAPRLLIYAASTLQSGVPSRFSGSGSGTDFTLTISRLQPEDAGTYFCQQLNSNALVFGGGTKVDIK
notes: as for B1
Molecule B9 yielded an EC50 in assay [1] of 0.23 nM. This molecule also had an EC50 in assay [2] of 2.54 nM. Besides, in assay [3], the Kd is 10.4 nM, the koff is 0.00149 s⁻¹ and the kon is 143000 M⁻¹ s⁻¹.

B10: 2020EP085-G5 scFv (scFv, V domains shown)
VH: QVQLVQSGAEVKKPGASVKVSCKASGYTFTDYYMHWVRQAPGQGLEWMGWINPNSGGTNYAQKFQGRVTMTRDTSITTAYMELSWLRSDDTAVYYCAREVGTTTTGVDYWGQGTLVTVSS
VL: VIWMTQSPSSLSASVGDRVTFTCQASQDINIYLTWYQIKPGKAPKVLIYDASTLESGVPSRFSGSGFGTHFVFTISSLQPEDFATYYCQHYDSLPLTFGGGTKVEIK
notes: as for B1
On to B10, for which the EC50 in assay [1] stood at 1 nM. The midpoint of the response in assay [2], the EC50, lay at 3.3 nM. In addition, in assay [3], the Kd turned out to be 10.9 nM, the koff is 0.00144 s⁻¹ and the kon amounted to 132000 M⁻¹ s⁻¹.

B11: 2019EP47-A05 scFv (scFv, V domains shown)
VH: QMQLVQSGAEVKKPGSSVKVSCKASGGTFSSYAISWVRQAPGQGLEWMGRIIPILGIANYAQKFQGRVTITADKSTSTAYMELSSLRSEDTAVYYCAVNTYYYDSSGYYYEYFDYWGQGTLVTVSS
VL: EIVLTQSPSSLSASVGDRVTITCQASQHINNHLNWYQQKPGKGPKLLIYDVSNLEAGVPSRFSASGSGTDFSFTISSLQPEDFATYYCQQYDSLPLTFGQGTKVEVK
notes: as for B1
In turn, B11 yielded an EC50 in assay [1] of 88.3 nM. The molecule also came in with an EC50 in assay [2] of 3.35 nM. In assay [3], this molecule gave a Kd of 2.79 nM, a koff of 7.77e-05 s⁻¹ and a kon of 27900 M⁻¹ s⁻¹.

Values taken from patent publication US20240336683A1 (published 2024).
